Assay results taken from the RNAGym collection of RNA variant scans (doi:10.1073/pnas.2313332121).

B1: TPR t1 (parent)
chain: GACCAAUCUGCCCUCAGAGCUCGAGAACAUCUUCGGAUGCAGAGGAGGCAGGCUUCGGUGGCGCGAUAGCGCCAACGUCCUCAACCUCCAAUGCAUCCCACCACAUGAUGAUGCCUGAAGAGCCUUGGUUUUUUG

Variants of: B1
Assay: polymerase ribozyme fitness, log enrichment relative to wild type (log ratio); higher = more active; in vitro selection for triplet polymerase activity
Outline: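 After PCR construction and transcription, each subunit's mutant library from a heterodimeric triplet polymerase ribozyme was annealed with a biotinylated primer, the partner subunit and triplets. Incubation was frozen, at −7 °C, and extended constructs were gel-excised, bound to streptavidin beads and amplified by RT-PCR, in one selection round done in triplicate. Fitness is the logarithm of a genotype's enrichment divided by that of the wild type, from inverse-variance-weighted replicate averages of Illumina-sequenced inputs and outputs. The base of the logarithm is 2, and genotypes needed ≥10 input reads and ≥1 read per output.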

| Variant | polymerase ribozyme fitness (log ratio) |
| --- | --- |
| C12U G135U | 0.000607 |
| A2G C99U C101A A121G C124G | -2.5 |
| C53G C73A A105C | -3.2 |
| G17C A75G C101U | -5.29 |
| A5U C86G | -1.26 |
| A16U C114A | -4.01 |
| U33G G47U C72U G120A | -6.26 |
| C8G G44C C64U C76A C124G | -6.22 |
| A50G C56A C82A U131C | -1.25 |
| C53A C98A C102G U112C | -7.27 |
| A46U G52U G71U C123A | -2.41 |
| G45C C89U | -1.92 |
| G69C A90C A91G A108C U112A | -6.22 |
| C62A C102A | -3.33 |
| G61U C97A A100C | -3.32 |
| C115U C123G | -0.112 |
| C12G C53A G71U G107C U112C | -4.39 |
| C70G C79A A111C A119C | -8.17 |
| C20U G51U G71A | -6.53 |
| G60U A118C | -2.43 |
| C11A G120U | 0.0217 |
| C11U A16U A26U C62A G120C | -5.1 |
| A43U C80U C99U G120C | -6.23 |
| A2G U116A A121U | -0.583 |

| Variant | polymerase ribozyme fitness (log ratio) |
| --- | --- |
| C3U U38A G69U U109A | -2.41 |
| A74C C101G | -2.14 |
| C3U C56A A68G G120C | -3.32 |
| C4U G69A C89U C123G | -3.15 |
| C72U C115U U129G | -2.18 |
| U55G C73G | 1 |
| A41C G42C G63U G127C | -4.81 |
| U9A A18G C82U C115U | -3.35 |
| C98A U133G | -6.12 |
| G39A G135C | -0.0346 |
| C70U U81C U96C | -1.2 |
| C86U C97U | -0.517 |
| G57U C123U | 0.41 |
| G35U G69U C79U | -3.35 |
| G44U A46G G117A C124U | -1.75 |
| G47C C86U A105U A121C | -1.01 |
| A6C U81C U87G | -0.0503 |
| U14A A29G G113A | -5.5 |
| A2C G36A A50U G77A C123U | -2.76 |
| C13U U78A | 0.102 |
| C64U C80U | 0.0248 |
| U54C C73G A121U | 1.17 |
| C70G C94U | -3 |
| C8U U9A C11A C13A G44U C73A A100U C102U | -4.18 |

| Variant | polymerase ribozyme fitness (log ratio) |
| --- | --- |
| G17A C49A G58A G110C | -6.79 |
| U59G C99U U106A | -1.43 |
| G61U G127C | -0.698 |
| G36C G47A G110A G127U | -2.57 |
| C11A G42U C70U | -3.6 |
| C4G U9G A41G U96C A111C U116A C123G | -1.71 |
| A18C C88U A90G C114G | -0.417 |
| C34G G63A | -7.1 |
| G45A C79G G107A | -7.38 |
| A46G G63U A121U U126A | 0.154 |
| G45A C114U | -2.37 |
| C11U G42A C85G | -3.59 |
| C4U G44U C76A G77U A91C G120A | -2.7 |
| G71U C115G | -1.74 |
| A18U G61A C70U C115A | -5.05 |
| G71A G117U | -2.33 |
| G10U C20A C49U G65C C94A U109G | -7.47 |
| C62U C88G | -0.561 |
| G36C A66G C72U | -3.78 |
| G71U A91G A121U | 0.367 |
| U7G G17U G61U | -0.326 |
| U112A | 1.34 |
| A90U A105G | -3.78 |
| A41U A84U C88A | -3.83 |

| Variant | polymerase ribozyme fitness (log ratio) |
| --- | --- |
| A5U G45U | -1.13 |
| A43U G71A | -2.46 |
| C28G U32C A91U C114U A119G | -6.71 |
| G10A G120U G135C | 1.62 |
| C11A C13G U32C A50U G93U U96G U112A U131G | -4.75 |
| G60C G110C | -4.39 |
| A26C G39U C124G | -4.33 |
| A50C C62A | -2.99 |
| U7G G107A | -4.15 |
| G69A G120C | -0.596 |
| G36C U55G | -1.03 |
| A29U A66C | -2.83 |
| C8U A24G G48C C115G | -3.87 |
| G48C C72G | -0.77 |
| C28G G117A | -4.12 |
| C15A G36A C72U U116A G120U | -4.34 |
| C31G G61C | -7.02 |
| U112C G122A | 0.065 |
| C56A U112A | 1.46 |
| C53A G63A C124U U129C U134G | 1.57 |
| C3U U92G G117U A119U | -5.83 |
| C12U C56U | 0.248 |
| A18U G44C G69U | -0.776 |
| A24U G61U | -6.34 |

| Variant | polymerase ribozyme fitness (log ratio) |
| --- | --- |
| C53U C82A A121C | 1.33 |
| A50U G63C U112A A118G | -2.37 |
| C12U C72G | 0.149 |
| U32C A43U C123A | -1.31 |
| A100U G128A | -2.05 |
| A2C G52A C79A A95U C123U G135A | -1.79 |
| G63A G93U G110A | -4.5 |
| U14G C79G | -3.52 |
| A26C U106A G122A | -2.97 |
| A74C C82A A105U | -2.29 |
| C8G A41C G63U C64U G113A A118G | -7.5 |
| C13U A121C | 1.84 |
| C8U U9C A119U | 0.976 |
| C8G C86A A105C | -1.39 |
| C22G G57U U92C A100U C104A G113A | -7.69 |
| G10U A75U G77A C86A | -1.69 |
| G63C A121C | 0.84 |
| A6U G52A A74U | -0.0324 |
| A5C U9C C28G C56U G120A | -1.71 |
| C12G A29U C62G | -2.88 |
| A90U U116C | -1.26 |
| C72G U92C | -1.36 |
| G120U C123A | -0.201 |
| C8G G47U C123U | 0.786 |

| Variant | polymerase ribozyme fitness (log ratio) |
| --- | --- |
| C94G C101U | -1.46 |
| G48A C53A U59G G61C | -0.194 |
| C73G G117A C124A | 0.864 |
| C72G A111C | -0.642 |
| U7C C8A G48U G63U G120U C123U | -0.338 |
| U32A G44U U55A | -5.23 |
| A26U G39C G47A C82A A118U | -4.78 |
| G61U C70G | -4.08 |
| C86U C114U | -1.7 |
| A83C C88U | -0.561 |
| C72U A83U C98U | -0.271 |
| A6U U9C | 0.514 |
| G48U G69U G135A | -1.62 |
| C89U C115A | 0.206 |
| C11A C22U | -5.15 |
| A37G G113A | -1.4 |
| C56U C70A C115A G122A | -3.13 |
| A46U G77C | -1.54 |
| C11A U38G C56U C86G U112C | -2.57 |
| C56U A90G U132A | 0.308 |
| A41C C49A C72U | -1.51 |
| C101U C115U C124U | -0.886 |
| A27G C49G C64U | -2.51 |
| C56U G61C G117C | -4.62 |

| Variant | polymerase ribozyme fitness (log ratio) |
| --- | --- |
| C53U C124G | 1.61 |
| C11A G47A G77A | -2.62 |
| C22G G39A C56U | -3.12 |
| C94U U116C G128U | -3.48 |
| G10A A27G G71A C86U | -3.87 |
| G71U U96A | -1.24 |
| U9A A46U G63C C82G C86A | -1.25 |
| C8G U14C G45A A84G | -0.446 |
| G39U C94U G113C A118C | -3.27 |
| C15G G39U G48A A68U U112G | -7.39 |
| A16U G60C G117C U125A | -4.08 |
| G44C G127A U130G | -2.95 |
| C34A A50C C53G U106A A111C | -5.87 |
| G58A C62A | -2.66 |
| C8G U96C C104U | 0.578 |
| C98U G135C | -0.757 |
| G77A C82A G110A C123A | -2.98 |
| C22A G48U C49U C62G G69A A108G A111C | -6.98 |
| A2C C53U U81G | -4.15 |
| A6U C12A U78A C80U C86A G120A | -3.45 |
| C8G A43U C53U U106A | -1.57 |
| A5U G63U C102A | -3.19 |
| C11A C28G G44A C70U A121C | -4.42 |
